Data on one molecule can be found in patent US20220259316A1 (SINOCELLTECH, published 2022).

As usually defined, the Kd is a measure of binding affinity in units of concentration.

This test addresses T1, EGFR ECD recombinant protein (UniProt P00533 25-645, limits assumed).
T1 construct: extracellular domain; also called erbB1; Her1
As to the kind of experiment: method not stated; recombinant EGFR ECD protein.

B1: recombinant fully human anti-EGFR monoclonal antibody N6-3 (antibody, human IgG1, kappa, V domains shown)
VH: QVQLQESGPGLVKPSETLSLTCTVSGGSVSSGDYYWSWIRQSPGKGLEWIGHIYYSGNTNYNPSLKSRLTISIDTSKNQFSLKLSSVTAADTAIYYCVRDRVTGAFDIWGQGTMVTVSS
VL: DIVMTQSPSTLSASVGDRVTITCQASQDISNYLNWYQQKPGKAPKLLIYDASSLETGVPSRFSGSGSGTDFTFTISGLQPEDIATYFCQHFDHLPLAFGGGTKVEIKR
notes: also called recombinant human anti-EGFR monoclonal antibody (N6-3)
As to B1, the Kd was found to be 0.05 nM.
